Results reported in article PMC11879086, “Identification and characterization of a human MORC2 DNA binding region that is required for gene silencing” (Nucleic Acids Research, 2024).

How the values were obtained:
[1] = molecular target: T1, MORC2 subset C (Homo sapiens, UniProt Q9Y6X9 1-1032, R754D;R755D;K756D;R758D;K760D;R761D); assay: fluorescence anisotropy; apo; FA/EMSA: 50 mM NaCl, 3 mM MgCl2, 20 mM Na-HEPES pH 7.4, 1 mM TCEP, 10% glycerol, 0.025 mM ZnCl2, 50 ug/ml BSA, room temperature; 1 nM nucleic acid (FA) or 20 nM DNA (EMSA); settings: protein: recombinant; tags: tag removed by TEV; chain copies: 2; label: 5'-6-FAM; blunt
T1 sequence: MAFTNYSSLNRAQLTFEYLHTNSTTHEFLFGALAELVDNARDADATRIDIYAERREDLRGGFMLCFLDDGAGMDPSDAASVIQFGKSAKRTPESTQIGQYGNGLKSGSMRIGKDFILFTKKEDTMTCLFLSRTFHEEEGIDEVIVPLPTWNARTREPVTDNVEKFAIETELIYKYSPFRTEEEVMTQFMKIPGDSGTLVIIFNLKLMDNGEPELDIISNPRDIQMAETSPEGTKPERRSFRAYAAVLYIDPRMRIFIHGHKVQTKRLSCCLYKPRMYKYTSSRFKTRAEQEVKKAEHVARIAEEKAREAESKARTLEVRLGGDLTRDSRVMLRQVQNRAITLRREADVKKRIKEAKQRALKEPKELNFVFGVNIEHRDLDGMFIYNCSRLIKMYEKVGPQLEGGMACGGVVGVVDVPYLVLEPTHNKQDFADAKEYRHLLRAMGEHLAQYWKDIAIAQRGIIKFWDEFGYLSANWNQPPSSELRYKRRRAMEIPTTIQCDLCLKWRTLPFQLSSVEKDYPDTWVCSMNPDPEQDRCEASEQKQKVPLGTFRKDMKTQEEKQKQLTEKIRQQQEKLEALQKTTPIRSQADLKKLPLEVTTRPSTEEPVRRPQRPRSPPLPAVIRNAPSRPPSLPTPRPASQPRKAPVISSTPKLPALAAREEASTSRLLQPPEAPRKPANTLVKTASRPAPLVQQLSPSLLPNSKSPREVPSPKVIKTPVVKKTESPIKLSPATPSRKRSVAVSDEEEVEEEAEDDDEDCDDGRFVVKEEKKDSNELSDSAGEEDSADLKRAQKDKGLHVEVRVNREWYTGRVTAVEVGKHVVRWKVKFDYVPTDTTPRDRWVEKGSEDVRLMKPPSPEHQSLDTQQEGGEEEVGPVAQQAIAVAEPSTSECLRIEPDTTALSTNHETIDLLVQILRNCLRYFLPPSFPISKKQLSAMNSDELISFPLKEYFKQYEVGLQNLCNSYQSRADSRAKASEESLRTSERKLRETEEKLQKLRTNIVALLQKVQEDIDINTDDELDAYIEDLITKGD

[2] = molecular target: T2, MORC2 1-603 (Homo sapiens, UniProt Q9Y6X9 1-603); assay: as above; settings: protein: recombinant; tags: tag removed by TEV; label: 5'-6-FAM; blunt
T2 sequence: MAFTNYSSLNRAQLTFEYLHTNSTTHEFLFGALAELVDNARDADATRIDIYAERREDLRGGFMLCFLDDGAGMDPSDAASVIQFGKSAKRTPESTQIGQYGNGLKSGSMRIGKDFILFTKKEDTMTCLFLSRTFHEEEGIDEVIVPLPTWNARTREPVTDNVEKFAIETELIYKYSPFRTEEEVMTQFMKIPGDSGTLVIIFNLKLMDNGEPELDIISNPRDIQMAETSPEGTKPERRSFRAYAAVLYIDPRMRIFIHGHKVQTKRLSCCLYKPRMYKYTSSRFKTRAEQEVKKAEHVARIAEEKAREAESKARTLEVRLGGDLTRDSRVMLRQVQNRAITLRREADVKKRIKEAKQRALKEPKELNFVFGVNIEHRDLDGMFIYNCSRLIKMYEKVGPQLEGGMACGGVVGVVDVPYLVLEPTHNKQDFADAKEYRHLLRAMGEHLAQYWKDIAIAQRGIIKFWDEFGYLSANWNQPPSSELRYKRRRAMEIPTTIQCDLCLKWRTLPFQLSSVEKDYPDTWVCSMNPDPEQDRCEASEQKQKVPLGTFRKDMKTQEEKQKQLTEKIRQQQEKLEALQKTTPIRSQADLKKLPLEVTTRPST

B1: Random 35mer dsDNA (dsDNA)
DNA 1: ATAGGGTCCATCAGAATTCGGATGAACTCGGTGTG
DNA 2: CACACCGAGTTCATCCGAATTCTGATGGACCCTAT
With B1 the Kd [1] was 60 ± 20 nM and the Kd [2] was 446 ± 119 nM.
